These results are taken from US20120165244A1, “METHODS FOR BINDING LEWIS Y ANTIGEN” (priority 2008, published 2012).

In series [1] the test system is THP-1 cells. Kind of series: THP-1 phagocytosis assay with FITC-labeled K. pneumoniae. Type of series: cell-based, Human. As to conditions: activated THP-1 cells. The procedure:
Human leukemia monocytic THP-1 cells and murine macrophage cell line RAW 264.7 were obtained from the American Type Culture Collection. THP-1 cells were grown in suspension in RPMI-1640 supplemented with 10 mM HEPES, 1 mM sodium pyruvate, 0.1% β-mercaptoethanol, 100 U/ml penicillin, 100 µg/ml streptomycin, and 10% fetal bovine serum (FBS). RAW 264.7 cells were grown as an adhered layer in Dulbecco's modified Eagle's medium with 4 mM L-glutamine adjusted to contain 1.5 g/l sodium bicarbonate and 4.5 g/l glucose, 100 U/ml penicillin, […] streptomycin, and 10% FBS under a humidified 5% CO2 atmosphere at 37° C. For differentiation, THP-1 cells were plated in medium containing 10 nM PMA and allowed to adhere for 18 h.
FITC-labeled K. pneumoniae (1×10^5 CFU/well) were pre-incubated with rTMD1 at 37° C. for 30 minutes before adding to differentiated THP-1 cells. After incubation for 2 hours the THP-1 cells were washed twice with ice-cold PBS prior to fluorescence microscopy, or were further trypsinized, resuspended in PBS, and analyzed in a fluorescence-activated cell sorter (FACS; Becton Dickinson, San Jose, Calif.) to measure THP-1 cell intracellular fluorescence. Green fluorescence data from 10,000 events (cells) per condition collected at 530 nm on a log scale were analyzed with CellQuest™ software (Becton Dickinson).

A short description of series [2]: Clearance of LPS in circulation (Limulus amebocyte lysate test). It is filed as in vivo. As to conditions: LPS 20 mg/kg i.p.; rTMD1 10 mg/kg i.v. The procedure: (§1) Male FVB mice (8-10 weeks old) were used to model sepsis in vivo. The Institutional Animal Care and Use Committee of the National Cheng Kung University approved procedures. In the chronic endotoxemia model, various concentrations of rTMD1 or rTMD proteins in equi-molar amounts were administrated by tail intravenous (i.v.) injection and LPS (20 mg/kg) or K. pneumoniae (5×10^2 CFU/mouse, BCRC) was administrated by intraperitoneal (i.p.) injection. After 6 or 12 hours, mice were sacrificed by pentobarbital anesthesia (50 mg/kg; i.p.). […] The half-life of rTMD1 in the circulation was determined by i.v. injection of rTMD1 (10 mg/kg, equals 436.64 nmole/kg) and serum samples were collected at various time intervals. The levels of rTMD1 in the collected sera were determined by a sandwich ELISA which employed anti-c-Myc monoclonal antibody and TM-H300 as capture and detection antibodies (both from Santa Cruz Biotechnology), respectively. […] Mortality was monitored every 6-12 hours until all mice in either experimental group died. […] Serum samples were collected at various time intervals and the amount of LPS was determined by Limulus amebocyte lysate test (Associates of Cape Cod, E. Falmouth, Mass.). […] Outgrowth of K. pneumoniae was quantified by plating serial dilutions of blood samples on blood agar plates and enumerating colonies after overnight incubation at 37° C.

For series [3], the system named is K. pneumoniae. Nature of the series: Lethal bacteremia model (K. pneumoniae 5×10^3 CFU/mouse), survival. The settings on record: single i.v. dose 10 mg/kg; K. pneumoniae 5×10^3 CFU. Type of series: in vivo, Male FVB mice. The procedure:
as §1

For series [4], the target named is T1, binding of LPS binding protein to LPS (Homo sapiens, UniProt P18428).
T1 sequence (P18428 26-481): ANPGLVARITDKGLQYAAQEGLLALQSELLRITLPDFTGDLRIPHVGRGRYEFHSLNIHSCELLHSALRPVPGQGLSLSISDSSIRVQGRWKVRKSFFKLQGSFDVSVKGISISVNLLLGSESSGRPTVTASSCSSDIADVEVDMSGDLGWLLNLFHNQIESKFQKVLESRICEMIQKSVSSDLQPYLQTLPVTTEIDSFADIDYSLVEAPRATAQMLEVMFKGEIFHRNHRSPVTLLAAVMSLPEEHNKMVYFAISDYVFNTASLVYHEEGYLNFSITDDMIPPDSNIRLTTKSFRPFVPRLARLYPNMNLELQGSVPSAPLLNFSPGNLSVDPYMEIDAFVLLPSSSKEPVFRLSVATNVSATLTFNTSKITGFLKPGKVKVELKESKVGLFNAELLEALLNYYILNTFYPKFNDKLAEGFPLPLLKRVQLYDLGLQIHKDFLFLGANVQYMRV
Nature of the series: Binding of LPS binding protein to LPS. As to conditions: data not shown.

The nature of series [5]: Half-life of rTMD1 in the circulation (sandwich ELISA). It is filed as in vivo, Male FVB mice. The settings on record: mice. The procedure:
as §1

A short description of series [6]: LPS binding assay (coated wells). On the set-up: species or system E. coli. The settings on record: FIG. 4B. The method, then:
(§2) K. pneumoniae (3×10^5 CFU/well), E. coli O111:B4 smooth-type LPS (5 μg/well), or bovine serum albumin (BSA, 5 μg/well) in 100 μL of bicarbonate buffer (pH 9.6) were coated onto wells of high-binding microtiter plate (Corning Costar, Cambridge, Mass.). Nonspecific binding was blocked with binding buffer (20 mM Tris-HCl, pH 7.4, 0.15 M NaCl, 5 mM CaCl2) containing 50 mg/mL BSA. Various concentrations of rTMD proteins without or with CD14 (10 μg/mL; R&D Systems) in binding buffer containing 1 mg/mL BSA were added to wells and incubated for 2 hours. In some experiments, 0.2 M mannose, 5 mM EDTA, or Le^y were included in the binding buffer to compete with LPS and rTMD1 binding. Antibody against the c-Myc epitope of the rTMD proteins was added to wells and incubated for 2 hours, and peroxidase-labeled secondary antibody followed. Binding of rTMD proteins was detected by measuring absorbance at 450 nm.

The test system of series [7] is K. pneumoniae. Nature of the series: K. pneumoniae binding assay (coated wells). As to conditions: FIG. 4A. The procedure:
as §2

Series [8] can be described thus: Lethal sepsis model (LPS 40 mg/kg i.p.), survival. Type of series: in vivo, Male FVB mice. As to conditions: four i.v. doses of 2 mg/kg. The procedure: as §1

B1: rTMD1: recombinant human thrombomodulin N-terminal lectin-like domain (residues Ala1-Ala155) with 6×His tag and c-Myc epitope, Pichia pastoris expressed (protein)
chain: EFAPAEPQPGGSQCVEHDCFALYPGPATFLNASQICDGLRGHLMTVRSSVAADVISLLLNGDGGVGRRRLWIGLQLPPGCGDPKRLGPLRGFQWVTGDNNTSYSRWARLDLNGAPLCGPLCVAVSAAEATVPSEPIWEEQQCEVKADGFLCEFHFPAYLEDDDDKIEQKLISEEDLNSAVDHHHHHH
modifications: left off: small tags and cut ends
On to B1, for which the “bacterial phagocytosis by THP-1 cells” value in series [1] is “markedly increased”. The LPS clearance result in series [2] was “significantly enhanced”. For the same molecule, in series [3], the “mice surviving more than 24 hours” value turned out to be 50%. In addition, the “binding of LPS binding protein to LPS” value in series [4] is listed as “not inhibited”. Also, the “time detectable after each i.v. injection” value in series [5] (i.v.) was at most 12 h. In addition, the half-life in circulation in series [5] (i.v. 10 mg/kg) is 3 to 4 h. In addition, the “binding to LPS” value in series [6] is recorded as “specifically bound”. Further, the Kd in series [6] (estimated from the 50% saturation, read-out: apparent Kd of the binding of LPS with rTMD1) was about 1600 nM. In addition, in series [7], the “binding to K. pneumoniae” value was “specifically bind”. Also, the survival in series [8] (1 day after LPS challenge) is reported as 100%; in series [8] (4 days after LPS challenge) it was 60%.
